Experimental findings from article doi:10.1101/2023.12.18.572142 (bioRxiv, 2023) are described below.

Where two headings read alike, the source gives them in different places.

As a reminder, the Kd is the equilibrium constant for the complex coming apart. A high value points to lower affinity.

Assay in all cases: SPR
(SPR reads the build-up and loss of mass on a sensor chip optically.)

One assay addresses cat Fcμ–J complex (cat).
For assay [1], the target named is T1, human Fcμ–J complex (pentameric IgM core: IgM-Fc pentamer and J chain) (human, UniProt P01871-1 106-453; P01591 23-159).
The target in assay [2] is T1, human Fcμ–J complex (pentameric IgM …). This is another data set of the same source.
Assay [3] has the same target. This is another data set of the same source.
A further assay addresses T2, mouse Fcμ–J complex (mouse, UniProt P01872 104-454; P01592 22-159).
T2 sequence (looked up) 1: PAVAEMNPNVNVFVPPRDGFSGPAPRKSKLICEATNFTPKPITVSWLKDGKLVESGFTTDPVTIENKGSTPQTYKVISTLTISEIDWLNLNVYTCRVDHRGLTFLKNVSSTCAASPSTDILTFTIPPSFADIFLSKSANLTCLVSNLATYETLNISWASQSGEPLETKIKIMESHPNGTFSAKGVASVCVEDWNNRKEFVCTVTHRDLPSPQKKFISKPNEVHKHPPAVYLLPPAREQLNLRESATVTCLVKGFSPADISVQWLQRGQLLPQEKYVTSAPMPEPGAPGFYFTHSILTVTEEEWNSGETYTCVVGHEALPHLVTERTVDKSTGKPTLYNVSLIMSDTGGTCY
T2 sequence (looked up) 2: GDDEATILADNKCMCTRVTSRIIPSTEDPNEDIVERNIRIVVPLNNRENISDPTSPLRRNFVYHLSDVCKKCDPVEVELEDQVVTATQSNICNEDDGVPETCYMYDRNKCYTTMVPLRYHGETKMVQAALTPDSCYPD

Molecule “cat CD5L (3-SRCR isoform) (from UniProt A0A1E1GEY0 20-355) (natural protein)” had a Kd with cat Fcμ–J complex (cat) of 11 nM.

B1: human CD5L (CD5 antigen-like) (natural protein, UniProt O43866 20-347, looked up)
chain: SPSGVRLVGGLHRCEGRVEVEQKGQWGTVCDDGWDIKDVAVLCRELGCGAASGTPSGILYEPPAEKEQKVLIQSVSCTGTEDTLAQCEQEEVYDCSHDEDAGASCENPESSFSPVPEGVRLADGPGHCKGRVEVKHQNQWYTVCQTGWSLRAAKVVCRQLGCGRAVLTQKRCNKHAYGRKPIWLSQMSCSGREATLQDCPSGPWGKNTCNHDEDTWVECEDPFDLRLVGGDNLCSGRLEVLHKGVWGSVCDDNWGEKEDQVVCKQLGCGKSLSPSFRDRKCYGPGVGRIWLDNVRCSGEEQSLEQCQHRFWGFHDCTHQEDVAVICSG
B1 yielded a dissociation constant (Kd) in assay [1] of 30 nM.

B2: D1 domain of FcμR (domain or fragment, human)
chain: RILPEVKVEGELGGSVTIKCPLPEMHVRIYLCREMAGSGTCGTVVSTTNFIKAEYKGRVTLKQYPRKNLFLVEVTQLTESDSGVYACGAGMNTDRGKTQKVTLNVHS
For B2, the values for the equilibrium dissociation constant (Kd) in assay [2] and in assay [3] were 7.2 nM and 0.3 nM, respectively.

B3: mouse CD5L (natural protein, UniProt Q9QWK4 22-352, looked up)
chain: ESPTKVQLVGGAHRCEGRVEVEHNGQWGTVCDDGWDRRDVAVVCRELNCGAVIQTPRGASYQPPASEQRVLIQGVDCNGTEDTLAQCELNYDVFDCSHEEDAGAQCENPDSDLLFIPEDVRLVDGPGHCQGRVEVLHQSQWSTVCKAGWNLQVSKVVCRQLGCGRALLTYGSCNKNTQGKGPIWMGKMSCSGQEANLRSCLLSRLENNCTHGEDTWMECEDPFELKLVGGDTPCSGRLEVLHKGSWGSVCDDNWGEKEDQVVCKQLGCGKSLHPSPKTRKIYGPGAGRIWLDDVNCSGKEQSLEFCRHRLWGYHDCTHKEDVEVICTDFDV
In turn, B3 gave a Kd with mouse Fcμ–J complex of 5 nM.
